Laboratory results reported in PMC3124497.

Experiments:
[1] = target: HIV-1 JR-CSF Env trimer (gp120/gp41) on LAI-chimeric molecular clone virions (HIV-1 isolate JR-CSF | HIV-1 isolate LAI) (UniProt P20871)
[2] = target: HIV-1 JR-FL Env trimer (gp120/gp41) on LAI-chimeric molecular clone virions (HIV-1 isolate JR-FL | HIV-1 isolate LAI)
[3] = target: HIV-1 ADA Env trimer (gp120/gp41) on LAI-chimeric molecular clone virions (HIV-1 isolate ADA | HIV-1 isolate LAI)
[4] = target: HIV-1 ADA Env trimer (gp120/gp41) on LAI-chimeric molecular clone virions (HIV-1 isolate ADA | HIV-1 isolate LAI); assay: native gel or EMSA; Blue Native PAGE: virions concentrated 100-fold, 1% DDM for 20 min on ice, 4-16% NativePAGE Bis-Tris gel at RT, Western blot with mAb cocktails to gp120 or to gp41; virions untreated or first incubated 1 h at 37-57°C or up to 96 h at 37°C
[5] = target: HIV-1 JR2 Env trimer (gp120/gp41) on LAI-chimeric molecular clone virions (HIV-1 isolate JR-FL | HIV-1 isolate LAI); assay: as above
[6] = target: HIV-1 JR-CSF Env trimer (gp120/gp41) on LAI-chimeric molecular clone virions (HIV-1 isolate JR-CSF | HIV-1 isolate LAI) (UniProt P20871); assay: as above
[7] = target: HIV-1 JR-FL Env trimer (gp120/gp41) on LAI-chimeric molecular clone virions (HIV-1 isolate JR-FL | HIV-1 isolate LAI); assay: as above
[8] = target: HIV-1 JR-FL SOS Env trimer (A501C, T605C) on LAI-chimeric molecular clone virions (HIV-1 isolate JR-FL | HIV-1 isolate LAI); assay: as above

“Four-domain soluble human CD4 (receptor)” gave a sCD4 IC50: concentration of 4-domain soluble CD4 required to decrease HIV-1 infectivity by 50% (TZM-bl cells) [1] of 1.1 µg/mL, a sCD4 IC50: concentration of 4-domain soluble CD4 required to decrease HIV-1 infectivity by 50% (TZM-bl cells) [2] of 1.2 µg/mL and a sCD4 IC50: concentration of 4-domain soluble CD4 required to decrease HIV-1 infectivity by 50% (TZM-bl cells) [3] of 0.17 µg/mL.

In the case of “HIV-1 ADA Env trimer (gp120/gp41) on LAI-chimeric molecular clone virions (complex)”, the stoichiometry N [4] is reported as 3.

“HIV-1 JR2 Env trimer (gp120/gp41) on LAI-chimeric molecular clone virions (complex)” gave a stoichiometry N [5] of 3.

“HIV-1 JR-CSF Env trimer (gp120/gp41) on LAI-chimeric molecular clone virions (from UniProt P20871 32-503) (complex)” gave a stoichiometry N [6] of 3.

For “HIV-1 JR-FL Env trimer (gp120/gp41) on LAI-chimeric molecular clone virions (complex)”, the stoichiometry N [7] was 3.

With “HIV-1 JR-FL SOS Env trimer (A501C, T605C) on LAI-chimeric molecular clone virions (complex)” the stoichiometry N [8] was 3.
